{"source": "patent US20230365711A1", "about": "(Hoffmann-La Roche, published 2023)", "key": {"[1]": {"target": "T1, huNABA-avi-his (hybrid protein N-A1-B3-A2: N and A1 domains of human BGP, B3 domain of human CEA, A2 domain … (human, biotinylated at the avi tag (in vivo, co-transfected biotin ligase)))", "T1 construct": "also called NABA-avi-his reagent; biotinylated NABA", "T1 chain": "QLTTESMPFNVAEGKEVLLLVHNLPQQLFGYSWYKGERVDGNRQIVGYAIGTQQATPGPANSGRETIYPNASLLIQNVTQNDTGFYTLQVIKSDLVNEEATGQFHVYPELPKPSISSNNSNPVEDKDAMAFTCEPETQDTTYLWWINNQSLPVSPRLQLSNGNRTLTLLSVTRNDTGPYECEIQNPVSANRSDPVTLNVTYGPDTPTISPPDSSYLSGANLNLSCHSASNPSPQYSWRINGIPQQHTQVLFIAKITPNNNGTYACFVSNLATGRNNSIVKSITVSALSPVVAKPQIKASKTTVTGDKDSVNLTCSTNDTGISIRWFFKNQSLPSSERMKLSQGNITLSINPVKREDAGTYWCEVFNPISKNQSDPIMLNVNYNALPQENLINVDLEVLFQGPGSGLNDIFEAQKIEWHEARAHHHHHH", "test": "Proteon SPR, antibody analyte on biotinylated NABA (Neutravidin chip)", "description": "(§1) Shown in FIG. 22 are Proteon (Biacore) sensorgrams obtained for the binding of the CDR-H3 antibody variants to the CEA antigen-harbouring chimeric protein NABA. […] The affinity matured precursor clone 5HFF12 and the parental antibody CH7A were included for direct comparison. All antibodies tested in this assay had 2F1 as the light chain. […] The relative affinity of each, measured in the bivalent form, is as follows: 5HFF12>CH7A (Y98A/D99Y)>CH7A (Y98A)>CH7A>CH7A (E102Q)>CH7A (D99Y)>CH7A (D99H)>CH7A (A103T)>CH7A (V101F)>CH7A (W95Y)."}, "[2]": {"target": "T1, huNABA-avi-his (hybrid protein …)", "test": "Proteon SPR, antibody analyte on biotinylated NABA (Neutravidin chip); column Ka (M)", "description": "as §1"}, "[3]": {"target": "T1, huNABA-avi-his (hybrid protein …)", "test": "Biacore, column Affinity, CDR-H3 rows; antigen not named on the sheet, NABA-avi-his per paragraph 230"}, "[4]": {"target": "T1, huNABA-avi-his (hybrid protein …)", "test": "Biacore, Fab on immobilized NABA-avi-his; column Monovalent Affinity"}, "[5]": {"target": "T1, huNABA-avi-his (hybrid protein …)", "test": "Proteon SPR, antibody analyte on biotinylated NABA (Neutravidin chip); column Ka (M)"}, "[6]": {"target": "T2, human carcinoembryonic antigen (CEA), membrane-bound on cells (human, UniProt P06731 35-685)", "T2 construct": "whole, on cells; also called CEACAM-5; CD66e", "T2 sequence (looked up)": "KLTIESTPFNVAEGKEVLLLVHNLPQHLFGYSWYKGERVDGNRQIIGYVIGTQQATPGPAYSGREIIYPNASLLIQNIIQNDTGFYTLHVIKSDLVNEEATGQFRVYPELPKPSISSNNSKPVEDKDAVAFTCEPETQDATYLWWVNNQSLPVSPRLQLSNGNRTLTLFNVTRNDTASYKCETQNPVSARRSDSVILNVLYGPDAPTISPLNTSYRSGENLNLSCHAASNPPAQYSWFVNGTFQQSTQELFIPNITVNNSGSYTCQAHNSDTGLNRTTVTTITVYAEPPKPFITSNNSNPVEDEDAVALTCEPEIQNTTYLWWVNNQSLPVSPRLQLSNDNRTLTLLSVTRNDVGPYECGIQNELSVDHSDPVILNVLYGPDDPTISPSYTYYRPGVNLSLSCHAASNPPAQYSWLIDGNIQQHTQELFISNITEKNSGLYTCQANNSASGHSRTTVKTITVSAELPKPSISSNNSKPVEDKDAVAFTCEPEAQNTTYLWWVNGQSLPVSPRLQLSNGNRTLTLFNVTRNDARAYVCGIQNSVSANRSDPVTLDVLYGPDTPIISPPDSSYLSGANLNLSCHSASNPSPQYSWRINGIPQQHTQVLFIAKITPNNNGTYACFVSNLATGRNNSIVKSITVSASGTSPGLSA", "test": "FACS on MKN45 cells"}, "[7]": {"target": "T1, huNABA-avi-his (hybrid protein …)", "test": "Proteon SPR, antibody analyte on biotinylated NABA (Neutravidin chip)"}, "[8]": {"target": "T1, huNABA-avi-his (hybrid protein …)", "test": "Biacore, column Affinity, CDR-L1 and CDR-L2 rows; antigen not named on the sheet, NABA-avi-his per paragraph 230"}}}
{"binder": "antibody with heavy chain CH7A (Y98A) and light chain 2F1 (antibody, V domains shown, Bivalent form) VH: QVQLVQSGSELKKPGASVKVSCKASGYTFTEFGMNWVRQAPGQGLEWMGWINTKTGEATYVEEFKGRFVFSLDTSVSTAYLQISSLKAEDTAVYYCARWDFADYVEAMDYWGQGTTVTVSS VL: DIQMTQSPSSLSASVGDRVTITCKASAAVGTYVAWYQQKPGKAPKLLIYSASYRKRGVPSRFSGSGSGTDFTLTISSLQPEDFATYYCHQYYTYPLFTFGQGTKLEIKR", "values": [{"measurement": "Kd", "setting": "[1]", "value": 0.52, "unit": "nM"}, {"measurement": "kon", "setting": "[2]", "value": 132000, "unit": "M⁻¹ s⁻¹"}]}
{"binder": "H3 Full (5) 8 (Fab, V domains shown) VH: QVQLVQSGSELKKPGASVKVSCKASGYTFTEFGMNWVRQAPGQGLEWMGWINTKTGEATYVEEFKGRFVFSLDTSVSTAYLQISSLKAEDTAVYYCARWDFFEYFKTMDYWGQGTTVTVSS VL: DIQMTQSPSSLSASVGDRVTITCKASQNVGTNVAWYQQKPGKAPKLLIYSASYRYSGVPSRFSGSGSGTDFTLTISSLQPEDFATYYCHQYYTYPLFTFGQGTKLEIK", "values": [{"measurement": "Kd", "setting": "[3]", "value": 51, "unit": "nM"}, {"measurement": "Kd", "setting": "[4]", "value": 51, "unit": "nM"}, {"measurement": "koff", "setting": "[4]", "value": 0.0014, "unit": "s⁻¹"}, {"measurement": "kon", "setting": "[4]", "value": 27300, "unit": "M⁻¹ s⁻¹"}]}
{"binder": "3E1 (Fab, V domains shown) VH: QVQLVQSGSELKKPGASVKVSCKASGYTFTEFGMNWVRQAPGQGLEWMGWINTKTGEATYVEEFKGRFVFSLDTSVSTAYLQISSLKAEDTAVYYCARWDFVDYVEAMDYWGQGTTVTVSS VL: DIQMTQSPSSLSASVGDRVTITCKASQNVGTNVAWYQQKPGKAPKLLIYSASYRYSGVPSRFSGSGSGTDFTLTISSLQPEDFATYYCHQYYTYPLFTFGQGTKLEIK", "values": [{"measurement": "Kd", "setting": "[3]", "value": 1890, "unit": "nM"}]}
{"binder": "2D7 (Fab, V domains shown) VH: QVQLVQSGSELKKPGASVKVSCKASGYTFTEFGMNWVRQAPGQGLEWMGWINTKTGEATYVEEFKGRFVFSLDTSVSTAYLQISSLKAEDTAVYYCARWDFYWYVEAMDYWGQGTTVTVSS VL: DIQMTQSPSSLSASVGDRVTITCKASQNVGTNVAWYQQKPGKAPKLLIYSASYRYSGVPSRFSGSGSGTDFTLTISSLQPEDFATYYCHQYYTYPLFTFGQGTKLEIK", "values": [{"measurement": "Kd", "setting": "[3]", "value": 746, "unit": "nM"}]}
{"binder": "anti-CEA antibody with heavy chain CH1A1 and light chain 2F1 (antibody, V domains shown, CH1A with M69F/T71L double point mutation; also called precursor clone CH1A1) VH: QVQLVQSGAEVKKPGASVKVSCKASGYTFTEFGMNWVRQAPGQGLEWMGWINTKTGEATYVEEFKGRVTFTLDTSTSTAYMELRSLRSDDTAVYYCARWDFYDYVEAMDYWGQGTTVTVSS VL: DIQMTQSPSSLSASVGDRVTITCKASAAVGTYVAWYQQKPGKAPKLLIYSASYRKRGVPSRFSGSGSGTDFTLTISSLQPEDFATYYCHQYYTYPLFTFGQGTKLEIKR", "values": [{"measurement": "kon", "setting": "[5]", "value": 81900, "unit": "M⁻¹ s⁻¹"}, {"measurement": "EC50 (read off the curve)", "setting": "[6]", "value": "~1", "unit": "µg/mL"}, {"measurement": "Kd", "setting": "[7]", "value": 4.24, "unit": "nM"}]}
{"binder": "H3 Full (5) 28 (Fab, V domains shown) VH: QVQLVQSGSELKKPGASVKVSCKASGYTFTEFGMNWVRQAPGQGLEWMGWINTKTGEATYVEEFKGRFVFSLDTSVSTAYLQISSLKAEDTAVYYCARWDFFYYVQTMDYWGQGTTVTVSS VL: DIQMTQSPSSLSASVGDRVTITCKASQNVGTNVAWYQQKPGKAPKLLIYSASYRYSGVPSRFSGSGSGTDFTLTISSLQPEDFATYYCHQYYTYPLFTFGQGTKLEIK", "values": [{"measurement": "Kd", "setting": "[3]", "value": 81, "unit": "nM"}]}
{"binder": "3A1 (Fab, V domains shown, also called pAC21 (3A1); 3A1 wt/lc) VH: QVQLVQSGSELKKPGASVKVSCKASGYTFTEFGMNWVRQAPGQGLEWMGWINTKTGEATYVEEFKGRFVFSLDTSVSTAYLQISSLKAEDTAVYYCARWDFYDYVEAMDYWGQGTTVTVSS VL: DIQMTQSPSSLSASVGDRVTITCKASANVGNNVAWYQQKPGKAPKLLIYLASNRSGGVPSRFSGSGSGTDFTLTISSLQPEDFATYYCHQYYTYPLFTFGQGTKLEIK", "values": [{"measurement": "Kd", "setting": "[8]", "value": 250, "unit": "nM"}, {"measurement": "Kd", "setting": "[4]", "value": 250, "unit": "nM"}, {"measurement": "koff", "setting": "[4]", "value": 0.0117, "unit": "s⁻¹"}, {"measurement": "kon", "setting": "[4]", "value": 46800, "unit": "M⁻¹ s⁻¹"}]}
{"binder": "L2D2 (Fab, V domains shown) VH: QVQLVQSGSELKKPGASVKVSCKASGYTFTEFGMNWVRQAPGQGLEWMGWINTKTGEATYVEEFKGRFVFSLDTSVSTAYLQISSLKAEDTAVYYCARWDFYDYVEAMDYWGQGTTVTVSS VL: DIQMTQSPSSLSASVGDRVTITCKASHNVGTNVAWYQQKPGKAPKLLIYSASHRYSGVPSRFSGSGSGTDFTLTISSLQPEDFATYYCHQYYTYPLFTFGQGTKLEIK", "values": [{"measurement": "Kd", "setting": "[8]", "value": 2260, "unit": "nM"}]}
{"binder": "H3 Full (5) 27 (Fab, V domains shown) VH: QVQLVQSGSELKKPGASVKVSCKASGYTFTEFGMNWVRQAPGQGLEWMGWINTKTGEATYVEEFKGRFVFSLDTSVSTAYLQISSLKAEDTAVYYCARWDFSYYVEAMDYWGQGTTVTVSS VL: DIQMTQSPSSLSASVGDRVTITCKASQNVGTNVAWYQQKPGKAPKLLIYSASYRYSGVPSRFSGSGSGTDFTLTISSLQPEDFATYYCHQYYTYPLFTFGQGTKLEIK", "values": [{"measurement": "Kd", "setting": "[3]", "value": 132, "unit": "nM"}]}
{"binder": "pAC23 (2F11) (Fab, V domains shown) VH: QVQLVQSGSELKKPGASVKVSCKASGYTFTEFGMNWVRQAPGQGLEWMGWINTKTGEATYVEEFKGRFVFSLDTSVSTAYLQISSLKAEDTAVYYCARWDFYDYVEAMDYWGQGTTVTVSS VL: DIQMTQSPSSLSASVGDRVTITCKASQIASTNVAWYQQKPGKAPKLLIYWASYRYSGVPSRFSGSGSGTDFTLTISSLQPEDFATYYCHQYYTYPLFTFGQGTKLEIK", "values": [{"measurement": "Kd", "setting": "[8]", "value": 290, "unit": "nM"}]}
{"binder": "anti-CEA antibody with heavy chain CH1A1A and light chain 2F1 (antibody, V domains shown) VH: QVQLVQSGAEVKKPGASVKVSCKASGYTFTEFGMNWVRQAPGQGLEWMGWINTKTGEATYVEEFKGRVTFTTDTSTSTAYMELRSLRSDDTAVYYCARWDFYDYVEAMDYWGQGTTVTVSS VL: DIQMTQSPSSLSASVGDRVTITCKASAAVGTYVAWYQQKPGKAPKLLIYSASYRKRGVPSRFSGSGSGTDFTLTISSLQPEDFATYYCHQYYTYPLFTFGQGTKLEIKR", "values": [{"measurement": "kon", "setting": "[5]", "value": 81800, "unit": "M⁻¹ s⁻¹"}, {"measurement": "EC50 (read off the curve)", "setting": "[6]", "value": "~1", "unit": "µg/mL"}, {"measurement": "Kd", "setting": "[7]", "value": 5.91, "unit": "nM"}]}
{"binder": "pAC19 (2C6) (Fab, V domains shown) VH: QVQLVQSGSELKKPGASVKVSCKASGYTFTEFGMNWVRQAPGQGLEWMGWINTKTGEATYVEEFKGRFVFSLDTSVSTAYLQISSLKAEDTAVYYCARWDFYDYVEAMDYWGQGTTVTVSS VL: DIQMTQSPSSLSASVGDRVTITCKASKNVGTNVAWYQQKPGKAPKPLIYLASYPQIGVPSRFSGSGSGTDFTLTISSLQPEDFATYYCHQYYTYPLFTFGQGTKLEIK", "values": [{"measurement": "Kd", "setting": "[8]", "value": 700, "unit": "nM"}]}
{"binder": "anti-CEA antibody with heavy chain CH1A1B and light chain 2F1 (antibody, V domains shown) VH: QVKLQQSGAEVKKPGASVKVSCKASGYTFTEFGMNWVRQAPGQGLEWMGWINTKTGEATYVEEFKGRVTMTTDTSTSTAYMELRSLRSDDTAVYYCARWDFYDYVEAMDYWGQGTTVTVSS VL: DIQMTQSPSSLSASVGDRVTITCKASAAVGTYVAWYQQKPGKAPKLLIYSASYRKRGVPSRFSGSGSGTDFTLTISSLQPEDFATYYCHQYYTYPLFTFGQGTKLEIKR", "values": [{"measurement": "kon", "setting": "[5]", "value": 53700, "unit": "M⁻¹ s⁻¹"}, {"measurement": "EC50 (read off the curve)", "setting": "[6]", "value": "~1", "unit": "µg/mL"}, {"measurement": "Kd", "setting": "[7]", "value": 8.9, "unit": "nM"}]}
